Test system: T1, PolR (Microlunatus phosphovorus NM-1), ORF:57668f7d
T1 sequence: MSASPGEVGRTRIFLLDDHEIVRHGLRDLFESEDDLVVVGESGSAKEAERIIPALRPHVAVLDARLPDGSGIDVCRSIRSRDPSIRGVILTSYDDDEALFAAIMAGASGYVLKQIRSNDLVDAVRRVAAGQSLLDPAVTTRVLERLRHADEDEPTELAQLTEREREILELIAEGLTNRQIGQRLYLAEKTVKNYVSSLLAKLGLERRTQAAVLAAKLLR
Experiment: EMSA
Settings: EMSA: 3.0 ug His-PolR, 1.0 ug poly(dI-dC), 8% native PAGE, buffer not given (cites Zhang 2014); footprinting: 30 min room temperature, DNase I 1 min 25 C

Sequence | binding
TGTGTCCCTTCCGTGAAACCTCGTCGGTGAAGTCTGGTGCGGGCGAGGGGAATCCCGCCCGGAGGGGAGGCTAAACCACCCAGGAGAATGAATGGAGTGTGGTGGCGCCTCGCGAGAATCCGAGCCGCTTCGGCGGATCGGCGCCCGAGGCTCCCTCCGGTGACAGCACGTTCACCCTGCC (double strand) [ppgk (MLP_RS12905) promoter] | binds
CAGTTCACAGTCGCGATACTAGGTCGTAAGCCCGCCTCAAGTTGCCGCTCATGGGGTCGCCACACGCAGCTACAGGGAGGGTTCGGGCTGAGTTCACCCCTCGTTCACATCCGAACTTCGCCAGCCGGTCCATTTCGGGCATAGGCTCGAAGTCGAGCTTTTCTGATCAATCCCGAGGAATCC (double strand) [phoU (MLP_RS22885) promoter] | no binding
GACAGCGATCACGGAGATCAGTAGCCAGTCCATGATTGATCTTCCCCTTGCACGGTCAACAACGACAACCCAATCGTCGTGCCATGAGATGGTCGGCCACACGGGTCTTTCGGCTCTATCTGGTCCTTCCTTCGTCACCGGGAGGGCCCGCCGCCGTTCACCCACCGTTCACTGTGCTGGTCG (double strand) [pit (MLP_RS00235) promoter] | binds
ATTTGCAGCACTCCGTTCGCCGATTTGCAGCAGGCTTCTGTTCCGTGTGGTCCCCCGACCCAGGGGACCACGGAAACAACTGCGCAGCCCCCGCCCGAGGATCACCCGGAATCTTCCCCCAGGTTTGCCCTGACCCACAGAGGACGCCGCGGGACGAAGTCAACTTCAGCGTACGGTGGAGCACA (double strand) [ppgk (MLP_RS02595) promoter] | no binding
TCAGCCATCTGGACAACCTATCGTCCACACCACACGAGATAGCCGAGTTGGTCAGGTATTGATGCGAGTTGGGGTCGAACGTCCCGTCAGATCCGGTTCGAACGCATCACCTTTGAGTGAAGGCTCATCCGACAACGGGGATCAGCACACTCCTAG (double strand) [ppk (MLP_RS23025) promoter] | binds
TCGTCTCGGCAGCCCTTGGGTGAACTGTTCTCCGAGCGTGAGTAACGCCTCCGGGCGAGCGAGATGAACTGTTCGTGAATCCGCCGCCCGGGGGCCGTTCCAGGTGGATTTGACCGGTTTCGGAACCCCACGATGGTCGCGTGACCGAAGCTC (double strand) [pit (MLP_RS14415) promoter] | no binding
AGACGAGTGCTGCCGTGCACCGACTTCGCATCGGCGCCGCAACACAGTCCCCGCCCGTCGTTCGCTCGGCGTTCACCGGCGGGCCCTCGAGTCGTCAGAATGGCTGCCTAGCGTCTGGACCGGAGCCAGTGTCGCTCCTTACGTTCATTGCACGAGTCACACTCCGACAAGGGGAACGAGTGAAGAT (double strand) [pstS (MLP_RS23035) promoter] | binds
TTCGACCTCCGTATTCGGCTATTCGACTGTCCACCCTCTTCGTTACCACCGAGGGAGACACGTCACATTCACAACTCCCGGTCTGCGGATCAGACCAGCGATGCTGTCCGTGACTGCGGAAAGCTGACGACCGGAGACTGAGCGCCGGGGACCCGTTAACCCATTGTTCGCCCGGCA (double strand) [ppk2 (MLP_RS02760) promoter] | no binding
TCGCTCTCGGTGTTGATCGATCCGGAGCGCCCGTCCAGACCCTGCACCGATCCGTCGAGGGTCGAGACGAAGTTGCTCCGGACGACCGGTCCGGAGCCGCCTTCGGGCCAGCGATAGAGATCGATCAGGTCTGCTCGGCTGAGCTCGGCGGATGGTCGAGGGTCCGCGTG (double strand) [pap (MLP_RS11265) promoter] | no binding

Reference: article PMC6754071
